Test results from publication PMC9783754 (International Journal of Molecular Sciences, 2022).
Changes are numbered by the printed parent chain.

What was measured:
[1] = biological target: T1, Recombinant human sTNF (soluble form of tumor necrosis factor) (human, UniProt P01375 77-233); assay: SPR; ligand (50 μg/mL sTNF or TNF-β) immobilised on a ProteOn GLH chip by amine coupling; chip flushed with running buffer for two days and several times with 10 mM glycine pH 3.3 to dissociate sTNF multimers (monomeric sTNF); Ca2+-loaded S100 protein as analyte, 10 nM–2 µM; 25 °C; 10 mM HEPES, 150 mM NaCl, 1 mM CaCl2, 0.05% TWEEN 20, pH 7.4; heterogeneous ligand model; conditions: both partners purified
T1 construct: additional N-terminal methionine, stated in words; tumor necrosis factor, human, soluble form (157 residues), residues 77-233 of UniProt entry P01375; Monomeric on the SPR chip after long flushing and glycine pH 3.3 washes; multimeric in solution in the fluorimetric titrations and cross-linking; also called TNF-α; TNF ligand superfamily member 2; source: bought: Prospec-Tany Technogene (catalog # …)

[2] = biological target: T1, Recombinant human sTNF (soluble form of …); assay: as above; conditions: both partners purified; remark: listed apart in the source
[3] = biological target: T1, Recombinant human sTNF (soluble form of …); assay: other fluorescence titration; 280 nM (S100A11) or 0.5 µM (S100A12) multimeric sTNF titrated by Ca2+-bound S100 protein; Trp fluorescence of sTNF, excitation 295/298 nm, intensity at 325 nm; 25 °C; 10 mM HEPES-NaOH, 150 mM NaCl, 1 mM CaCl2, pH 7.4; single site binding model; apparent; conditions: both partners purified
[4] = biological target: the molecule itself; assay: cross-linking; 4 µM sTNF and/or S100 protein (sTNF to S100 1:0, 0:1, 1:0.5, 1:1, 1:2), 20 mM EDAC and 5 mM sulfo-NHS, 25 °C, 1.5 h; 10 mM HEPES, 150 mM NaCl, pH 7.4 with 1 mM CaCl2; SDS-PAGE with silver staining

T1 sequence (P01375 other isoform, or with tags, fused parts or gaps): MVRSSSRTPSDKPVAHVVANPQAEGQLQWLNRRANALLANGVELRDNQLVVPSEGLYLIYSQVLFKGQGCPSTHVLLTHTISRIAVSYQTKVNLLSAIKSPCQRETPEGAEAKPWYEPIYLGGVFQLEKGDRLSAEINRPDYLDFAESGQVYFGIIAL

B1: Recombinant human S100A16 (natural protein, UniProt Q96FQ6 1-103, looked up)
chain: MSDCYTELEKAVIVLVENFYKYVSKYSLVKNKISKSSFREMLQKELNHMLSDTGNRKAADKLIQNLDANHDGRISFDEYWTLIGGITGPIAKLIHEQEQQSSS
notes: S100A16, human; Ca2+-loaded in the assay; source: E. coli, purified as previously described
[1]
  Kd: > 100000 nM

B2: Recombinant human S100A2 (natural protein)
chain: not shown
notes: S100A2, human; Ca2+-loaded in the assay; source: E. coli, purified as previously described
[1]
  Kd: > 100000 nM

B3: Recombinant human S100A11 (natural protein, UniProt P31949 1-105, looked up)
chain: MAKISSPTETERCIESLIAVFQKYAGKDGYNYTLSKTEFLSFMNTELAAFTKNQKDPGVLDRMMKKLDTNSDGQLDFSEFLNLIGGLAMACHDSFLKAVPSQKRT
notes: S100A11, human, UniProt ID P31949 (printed in the methods of the database search); mainly dimeric by cross-linking at 4 µM; source: E. coli, purified as previously described
[2]
  Kd1 (KD, ligand population 1): 28 nM
  Kd2 (KD, ligand population 2): 695 nM
  kd1 (koff, ligand population 1): 0.00018 s⁻¹
  kd2 (koff, ligand population 2): 0.0084 s⁻¹
[3]
  Kd: 104 ± 23 nM
  stoichiometry N: 1
[4]
  stoichiometry N: 2

B4: Recombinant human S100A7 (natural protein, UniProt P31151 1-101, looked up)
chain: MSNTQAERSIIGMIDMFHKYTRRDDKIEKPSLLTMMKENFPNFLSACDKKGTNYLADVFEKKDKNEDKKIDFSEFLSLLGDIATDYHKQSHGAAPCSGGSQ
notes: S100A7, human; Ca2+-loaded in the assay; source: E. coli, purified as previously described
[1]
  Kd: > 100000 nM

B5: Recombinant human S100A15 (natural protein, UniProt Q86SG5 1-101, looked up)
chain: B4 chain with R22G, D25G, T52I, N53H, D57T, T84A
notes: Ca2+-loaded in the assay; source: E. coli, purified as previously described
[1]
  Kd: > 100000 nM

B6: Recombinant human S100A4 (natural protein)
chain: not shown
notes: S100A4, human; Ca2+-loaded in the assay; source: E. coli, purified as previously described
[1]
  Kd: > 100000 nM

B7: Recombinant human S100A9 (natural protein, UniProt P06702 1-114, looked up)
chain: MTCKMSQLERNIETIINTFHQYSVKLGHPDTLNQGEFKELVRKDLQNFLKKENKNEKVIEHIMEDLDTNADKQLSFEEFIMLMARLTWASHEKMHEGDEGPGHHHKPGLGEGTP
notes: S100A9, human; Ca2+-loaded in the assay; source: E. coli, purified as previously described
[1]
  Kd: > 100000 nM

B8: Recombinant human S100A13 (natural protein, UniProt Q99584 1-98, looked up)
chain: MAAEPLTELEESIETVVTTFFTFARQEGRKDSLSVNEFKELVTQQLPHLLKDVGSLDEKMKSLDVNQDSELKFNEYWRLIGELAKEIRKKKDLKIRKK
notes: S100A13, human, UniProt ID Q99584 (printed in the methods of the database search); source: E. coli, purified as previously described
[2]
  Kd1 (KD, ligand population 1): 2.4 nM
  Kd2 (KD, ligand population 2): 4.3 nM
  kd1 (koff, ligand population 1): 0.0009 s⁻¹
  kd2 (koff, ligand population 2): 0.0073 s⁻¹

B9: Recombinant human S100A3 (natural protein, UniProt P33764 1-101, looked up)
chain: MARPLEQAVAAIVCTFQEYAGRCGDKYKLCQAELKELLQKELATWTPTEFRECDYNKFMSVLDTNKDCEVDFVEYVRSLACLCLYCHEYFKDCPSEPPCSQ
notes: S100A3, human; Ca2+-loaded in the assay; source: E. coli, purified as previously described
[1]
  Kd: > 100000 nM

B10: Recombinant human S100A5 (natural protein, UniProt P33763 1-92, looked up)
chain: METPLEKALTTMVTTFHKYSGREGSKLTLSRKELKELIKKELCLGEMKESSIDDLMKSLDKNSDQEIDFKEYSVFLTMLCMAYNDFFLEDNK
notes: S100A5, human; Ca2+-loaded in the assay; source: E. coli, purified as previously described
[1]
  Kd: > 100000 nM

B11: Recombinant human S100A8 (natural protein, UniProt P05109 1-93, looked up)
chain: MLTELEKALNSIIDVYHKYSLIKGNFHAVYRDDLKKLLETECPQYIRKKGADVWFKELDINTDGAVNFQEFLILVIKMGVAAHKKSHEESHKE
notes: S100A8, human; Ca2+-loaded in the assay; source: E. coli, purified as previously described
[1]
  Kd: > 100000 nM

B12: Recombinant human S100A14 (natural protein, UniProt Q9HCY8 1-104, looked up)
chain: MGQCRSANAEDAQEFSDVERAIETLIKNFHQYSVEGGKETLTPSELRDLVTQQLPHLMPSNCGLEEKIANLGSCNDSKLEFRSFWELIGEAAKSVKLERPVRGH
notes: S100A14, human; Ca2+-loaded in the assay; source: E. coli, purified as previously described
[1]
  Kd: > 100000 nM

B13: Recombinant human S100P (natural protein, UniProt P25815 1-95, looked up)
chain: MTELETAMGMIIDVFSRYSGSEGSTQTLTKGELKVLMEKELPGFLQSGKDKDAVDKLLKDLDANGDAQVDFSEFIVFVAAITSACHKYFEKAGLK
notes: S100P, human; Ca2+-loaded in the assay; source: E. coli, purified as previously described
[1]
  Kd: > 100000 nM

B14: Recombinant human S100B (natural protein, UniProt P04271 1-92, looked up)
chain: MSELEKAMVALIDVFHQYSGREGDKHKLKKSELKELINNELSHFLEEIKEQEVVDKVMETLDNDGDGECDFQEFMAFVAMVTTACHEFFEHE
notes: S100B, human; Ca2+-loaded in the assay; source: E. coli, purified as previously described
[1]
  Kd: > 100000 nM

B15: Recombinant human S100A12 (natural protein, UniProt P80511 1-92, looked up)
chain: MTKLEEHLEGIVNIFHQYSVRKGHFDTLSKGELKQLLTKELANTIKNIKDKAVIDEIFQGLDANQDEQVDFQEFISLVAIALKAAHYHTHKE
notes: S100A12, human, UniProt ID P80511 (printed in the methods of the database search); monomer and dimer by cross-linking at 4 µM; source: E. coli, purified as previously described
[2]
  Kd1 (KD, ligand population 1): 2.3 nM
  Kd2 (KD, ligand population 2): 8.4 nM
  kd1 (koff, ligand population 1): 0.0018 s⁻¹
  kd2 (koff, ligand population 2): 0.0023 s⁻¹
[3]
  Kd: 348 ± 50 nM
  stoichiometry N: 1
[4]
  stoichiometry N: 2
